US20140228277A1 (Genentech, published 2014)
Starred links: 1 amine or outer side, 2 acyl side, 3 side chain; linkers in the order of their positions; H or OH if unused. Positions of bridges follow the written chain, without caps; N, C: chain ends. NH(CH2)3(OCH2CH2)2O(CH2)3NH = C(CN[*:1])COCCOCCOCCCN[*:2]

Key:
[1] = biological target: T1, human BACE1 extracellular domain (residues 22-457), wild type, C-terminal His8 (human, UniProt P56817 22-457); assay: ELISA; biotinylated BACE020 on plate-coated BACE1 ECD (WT, the reference)
T1 construct: Expressed in CHO cells with the BACE1 signal peptide; also called WT; BACE1 ECD
T1 sequence (P56817 other isoform, or with tags, fused parts or gaps): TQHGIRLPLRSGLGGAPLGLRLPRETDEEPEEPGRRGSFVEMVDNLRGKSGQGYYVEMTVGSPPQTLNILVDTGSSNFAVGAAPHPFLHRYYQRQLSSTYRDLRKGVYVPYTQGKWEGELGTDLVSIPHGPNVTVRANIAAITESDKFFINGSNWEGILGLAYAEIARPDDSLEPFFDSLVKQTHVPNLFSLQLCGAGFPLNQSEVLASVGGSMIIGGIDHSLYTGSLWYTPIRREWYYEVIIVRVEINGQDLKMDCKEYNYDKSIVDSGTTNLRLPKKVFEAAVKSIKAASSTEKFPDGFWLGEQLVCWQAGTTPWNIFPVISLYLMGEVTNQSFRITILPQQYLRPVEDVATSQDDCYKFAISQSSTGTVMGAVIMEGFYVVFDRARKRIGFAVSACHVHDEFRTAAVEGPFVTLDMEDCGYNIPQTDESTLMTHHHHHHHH
Description: (§1) Maxisorp microtiter plates (Nalge Nunc International, Rochester, N.Y.) were coated overnight at 4° C. with 2 μg/ml BACE1 mutant in 50 mM carbonate, pH 9.6. The coated wells were washed with buffer (PBS, 0.05% Polysorbate 20) and blocked with assay buffer (PBS, pH 7.4, 0.5% BSA, 0.05% Tween 20, 15 ppm Proclin) for 1 h at room temperature with gentle shaking. […] After washing, the amount of peptide bound to the plate was detected by the addition of Streptavidin-Horseradish Peroxidase Conjugate (GE Healthcare, Piscataway, N.J.) followed by the addition of TMB/H₂O₂ substrate (KPL, Gaithersburg, Md.). The reaction was quenched with 1 M phosphoric acid and the A₄₅₀ measured on a Molecular Devices SpectraMax Plus384 microplate reader. Concentrations to give half maximal effective concentration (EC₅₀) were determined using a 4-parameter non-linear regression curve-fitting program with Kaleidagraph (Synergy Software, Reading, Pa.). […] Concentrations to give half maximal inhibition concentration (IC₅₀) were determined using a 4-parameter non-linear regression curve-fitting program with Kaleidagraph.
(§2) The fold decrease in binding affinity was determined as the relative EC₅₀ values of EC₅₀ (mut)/EC₅₀ (WT), which are listed in Table 3.

[2] = biological target: T2, human BACE1 ECD (22-457) Q134A, His8 (human, UniProt P56817 22-457); assay: ELISA; biotinylated BACE020 on plate-coated BACE1 ECD mutant; ratio to WT
T2 construct: also called Q134A (73)
T2 sequence (P56817 other isoform, or with tags, fused parts or gaps Q134A Q134A): as the sequence (P56817 other isoform, or with tags, fused parts or gaps) above, with Q113A counted along it
Description: as §1, §2

[3] = biological target: T3, human BACE1 ECD (22-457) G291A, His8 (human, UniProt P56817 22-457); assay: as above
T3 construct: also called G291A (230)
T3 sequence (P56817 other isoform, or with tags, fused parts or gaps G291A G291A): as the sequence (P56817 other isoform, or with tags, fused parts or gaps) above, with G270A counted along it
Description: as §1, §2

[4] = biological target: T4, human BACE1 ECD (22-457) Q73A, His8 (human, UniProt P56817 22-457); assay: as above
T4 construct: also called Q73A (12)
T4 sequence (P56817 other isoform, or with tags, fused parts or gaps Q73A Q73A): as the sequence (P56817 other isoform, or with tags, fused parts or gaps) above, with Q52A counted along it
Description: as §1, §2

[5] = biological target: T5, human BACE1 ECD (22-457) R296A, His8 (human, UniProt P56817 22-457); assay: as above
T5 construct: also called R296A (235)
T5 sequence (P56817 other isoform, or with tags, fused parts or gaps R296A R296A): as the sequence (P56817 other isoform, or with tags, fused parts or gaps) above, with R275A counted along it
Description: as §1, §2

[6] = biological target: T6, human BACE1 ECD (22-457) T390A, His8 (human, UniProt P56817 22-457); assay: as above
T6 construct: also called T390A (329)
T6 sequence (P56817 other isoform, or with tags, fused parts or gaps T390A T390A): as the sequence (P56817 other isoform, or with tags, fused parts or gaps) above, with T369A counted along it
Description: as §1, §2

[7] = biological target: T7, human BACE1 ECD (22-457) Y132A, His8 (human, UniProt P56817 22-457); assay: as above
T7 construct: also called Y132A (71)
T7 sequence (P56817 other isoform, or with tags, fused parts or gaps Y132A Y132A): as the sequence (P56817 other isoform, or with tags, fused parts or gaps) above, with Y111A counted along it
Description: as §1, §2

B1: biotinylated BACE020 (Ac-NEESMYCRLLGIGCG-(PEG)3-biotin) (peptide)
peptide: Ac-NEESMYCRLLGIGCG-{NH(CH2)3(OCH2CH2)2O(CH2)3NH-biotin}
modifications: disulfide 7-14
notes: also called C-terminal biotin tagged BACE020 peptide
In the case of B1, the “Fold Decrease in Binding EC50 (Mut)/EC50 (WT)” value (“Fold Decrease in Binding EC50” below) [1] is reported as 1 fold, the “Fold Decrease in Binding EC50” value [2] is reported as 1990 fold and the “Fold Decrease in Binding EC50” value [3] is reported as 0.8 fold. The “Fold Decrease in Binding EC50” value [4] was 1.7 fold, the “Fold Decrease in Binding EC50” value [5] was 70.9 fold and the “Fold Decrease in Binding EC50” value [6] was 0.9 fold. The “Fold Decrease in Binding EC50” value [7] was 72.2 fold.
